How the values were obtained:
αENaC = biological target: T1, αENaC (Rattus norvegicus, UniProt P37089+P37090); assay: Surface biotinylation of αENaC in Xenopus oocytes; assay type: cell-based; details: coexpression with SPLUNC1
T1 construct: expressed in transfected cells; host or cells: Xenopus oocytes
T1 sequence (P37089 1-698): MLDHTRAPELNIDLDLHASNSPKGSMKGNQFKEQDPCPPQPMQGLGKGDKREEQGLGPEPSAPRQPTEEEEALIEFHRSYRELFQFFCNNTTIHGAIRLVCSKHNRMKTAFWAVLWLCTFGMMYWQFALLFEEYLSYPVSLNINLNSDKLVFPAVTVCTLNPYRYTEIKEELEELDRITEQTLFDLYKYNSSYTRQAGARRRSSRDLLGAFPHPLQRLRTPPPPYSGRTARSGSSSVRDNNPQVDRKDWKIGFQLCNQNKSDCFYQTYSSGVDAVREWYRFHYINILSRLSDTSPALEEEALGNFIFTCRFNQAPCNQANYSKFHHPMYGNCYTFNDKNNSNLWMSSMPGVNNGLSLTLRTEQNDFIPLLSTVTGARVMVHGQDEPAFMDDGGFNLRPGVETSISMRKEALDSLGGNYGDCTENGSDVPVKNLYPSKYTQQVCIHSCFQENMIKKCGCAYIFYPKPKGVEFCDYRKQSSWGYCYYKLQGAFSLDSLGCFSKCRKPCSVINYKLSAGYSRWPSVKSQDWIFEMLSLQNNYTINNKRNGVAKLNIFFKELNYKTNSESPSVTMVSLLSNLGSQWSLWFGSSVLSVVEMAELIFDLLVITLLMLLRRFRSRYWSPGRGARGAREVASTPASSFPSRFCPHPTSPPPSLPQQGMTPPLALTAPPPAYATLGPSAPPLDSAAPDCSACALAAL
T1 sequence (P37090 1-638): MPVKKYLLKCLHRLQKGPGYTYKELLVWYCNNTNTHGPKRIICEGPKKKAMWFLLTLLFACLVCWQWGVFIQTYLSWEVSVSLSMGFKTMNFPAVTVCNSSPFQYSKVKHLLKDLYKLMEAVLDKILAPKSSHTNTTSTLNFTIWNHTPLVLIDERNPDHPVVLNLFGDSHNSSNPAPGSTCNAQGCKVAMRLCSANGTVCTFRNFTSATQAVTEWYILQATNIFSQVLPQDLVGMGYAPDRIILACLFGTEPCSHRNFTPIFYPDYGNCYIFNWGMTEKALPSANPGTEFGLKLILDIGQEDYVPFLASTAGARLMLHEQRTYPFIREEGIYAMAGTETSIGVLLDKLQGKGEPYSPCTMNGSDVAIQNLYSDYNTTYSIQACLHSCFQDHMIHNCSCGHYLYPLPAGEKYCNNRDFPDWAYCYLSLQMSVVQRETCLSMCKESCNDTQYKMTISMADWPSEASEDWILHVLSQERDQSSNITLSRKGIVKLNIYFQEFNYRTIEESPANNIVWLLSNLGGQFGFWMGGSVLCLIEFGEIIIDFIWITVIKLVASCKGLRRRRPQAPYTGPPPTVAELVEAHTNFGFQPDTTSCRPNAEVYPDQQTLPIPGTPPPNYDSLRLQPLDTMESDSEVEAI
T1 sequence (P37091 1-650 partner): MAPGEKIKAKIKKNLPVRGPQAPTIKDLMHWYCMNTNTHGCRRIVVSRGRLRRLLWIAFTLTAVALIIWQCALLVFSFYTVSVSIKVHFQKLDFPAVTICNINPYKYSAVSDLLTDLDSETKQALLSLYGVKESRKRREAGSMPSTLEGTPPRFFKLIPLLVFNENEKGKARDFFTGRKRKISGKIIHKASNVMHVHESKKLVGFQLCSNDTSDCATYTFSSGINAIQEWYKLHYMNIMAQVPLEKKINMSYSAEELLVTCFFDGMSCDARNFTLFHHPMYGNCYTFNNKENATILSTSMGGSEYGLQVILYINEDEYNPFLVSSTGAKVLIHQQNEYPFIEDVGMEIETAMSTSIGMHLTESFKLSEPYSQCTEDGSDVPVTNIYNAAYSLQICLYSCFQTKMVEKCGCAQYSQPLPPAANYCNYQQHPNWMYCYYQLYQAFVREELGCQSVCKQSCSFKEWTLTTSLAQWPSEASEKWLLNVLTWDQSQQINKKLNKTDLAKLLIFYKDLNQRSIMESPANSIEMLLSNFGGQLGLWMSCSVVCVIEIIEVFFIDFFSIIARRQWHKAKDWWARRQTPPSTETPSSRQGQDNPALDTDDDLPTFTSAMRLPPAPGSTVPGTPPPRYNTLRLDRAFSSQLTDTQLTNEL
Method: The effect of SPLUNC1 on the number of ENaC channels in the plasma membrane was tested by expressing SPLUNC1 and αENaC in Xenopus oocytes. After surface biotinylation of αENaC, total lysate was prepared and lysate from 3-4 eggs was separated on a 10% gel.

CFTR = biological target: T2, CFTR (Homo sapiens, UniProt P13569); assay: CFTR activity in Xenopus oocytes co-expressing β2 adrenergic receptor, isoproterenol stimulated; assay type: cell-based; details: 10 μM isoproterenol
T2 construct: expressed in transfected cells; host or cells: Xenopus oocytes
T2 sequence (P13569 whole entry, species assumed): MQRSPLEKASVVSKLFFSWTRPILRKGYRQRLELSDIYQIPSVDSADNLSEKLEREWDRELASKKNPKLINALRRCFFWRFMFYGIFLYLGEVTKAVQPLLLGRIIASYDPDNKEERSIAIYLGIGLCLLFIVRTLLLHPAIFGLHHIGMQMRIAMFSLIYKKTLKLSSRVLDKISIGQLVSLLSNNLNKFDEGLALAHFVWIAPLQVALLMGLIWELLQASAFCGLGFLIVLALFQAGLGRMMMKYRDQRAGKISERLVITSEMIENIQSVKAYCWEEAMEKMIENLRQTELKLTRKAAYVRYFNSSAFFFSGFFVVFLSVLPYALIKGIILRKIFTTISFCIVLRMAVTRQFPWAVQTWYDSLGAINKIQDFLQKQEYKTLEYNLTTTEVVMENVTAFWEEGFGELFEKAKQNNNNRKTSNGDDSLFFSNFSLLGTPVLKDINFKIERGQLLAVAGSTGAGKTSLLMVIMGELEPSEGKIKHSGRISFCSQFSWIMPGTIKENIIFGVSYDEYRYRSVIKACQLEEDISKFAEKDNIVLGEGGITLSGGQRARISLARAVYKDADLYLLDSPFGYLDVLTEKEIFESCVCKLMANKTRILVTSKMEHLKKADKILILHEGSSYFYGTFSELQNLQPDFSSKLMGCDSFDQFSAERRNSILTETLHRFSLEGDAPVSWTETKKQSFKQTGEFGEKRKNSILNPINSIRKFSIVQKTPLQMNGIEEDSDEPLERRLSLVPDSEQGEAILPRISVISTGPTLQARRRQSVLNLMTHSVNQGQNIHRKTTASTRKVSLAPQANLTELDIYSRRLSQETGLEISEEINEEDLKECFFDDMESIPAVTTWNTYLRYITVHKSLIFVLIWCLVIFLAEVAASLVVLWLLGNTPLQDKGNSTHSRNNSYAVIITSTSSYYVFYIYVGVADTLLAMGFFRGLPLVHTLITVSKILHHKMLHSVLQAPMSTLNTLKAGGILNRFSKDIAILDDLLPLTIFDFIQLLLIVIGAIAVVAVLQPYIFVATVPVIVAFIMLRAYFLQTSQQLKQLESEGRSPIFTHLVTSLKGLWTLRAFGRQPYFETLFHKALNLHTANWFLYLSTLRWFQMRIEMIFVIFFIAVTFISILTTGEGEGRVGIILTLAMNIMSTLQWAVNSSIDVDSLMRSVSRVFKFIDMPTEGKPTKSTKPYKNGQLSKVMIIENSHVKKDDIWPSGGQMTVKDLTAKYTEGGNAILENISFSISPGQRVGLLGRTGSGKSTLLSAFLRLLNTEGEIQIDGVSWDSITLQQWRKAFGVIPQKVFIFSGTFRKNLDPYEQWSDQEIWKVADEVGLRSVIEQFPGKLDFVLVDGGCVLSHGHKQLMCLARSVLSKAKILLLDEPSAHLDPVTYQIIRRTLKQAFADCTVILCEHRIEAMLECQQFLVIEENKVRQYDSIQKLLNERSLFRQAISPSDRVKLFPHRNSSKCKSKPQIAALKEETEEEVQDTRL

B1: SPLUNC1: human SPLUNC1 (SEQ ID NO:1), 256 amino acid secreted PLUNC family protein; rSPLUNC1 is the purified V5/6His-tagged recombinant form (protein, listed as Homo sapiens)
chain: MFQTGGLIVFYGLLAQTMAQFGGLPVPLDQTLPLNVNPALPLSPTGLAGSLTNALSNGLLSGGLLGILENLPLLDILKPGGGTSGGLLGGLLGKVTSVIPGLNNIIDIKVTDPQLLELGLVQSPDGHRLYVTIPLGIKLQVNTPLVGASLLRLAVKLDITAEILAVRDKQERIHLVLGDCTHSPGSLQISLLDGLGPLPIQGLLDSLTGILNKVLPELVQGNVCPLVNEVLRGLDITLVHDIVNMLIHGLQFVIKV
modifications: V5/6His tag in recombinant form
notes: rSPLUNC1 is the purified V5/6His-tagged recombinant form
plasma membrane ENaC (surface biotinylation) (αENaC): decreased | CFTR activity (CFTR; 5 ng/ml rSPLUNC1 exposure): no inhibitory effect on CFTR activity | CFTR activity (CFTR; injection of SPLUNC1 cRNA): no inhibitory effect on CFTR activity

— US9127040B2, “Regulation of sodium channels by PLUNC proteins” (The University of North Carolina at Chapel Hill, priority 2011, dated 2015)
